# From the supplement of paper PMC7877785
# ± gives the uncertainty stated by the source.
# Experiment: self-splicing fitness, log relative to wild type (ln ratio); higher = more splicing; Tetrahymena group I intron in knt gene, E. coli kanamycin selection, DiMSum; sequences stand for … in CUCUCU…GGAGGGAAAAGUUAUCAGGCAUGCACCUGGUAGCUAGUCUUUAAACCAAUAGAUUGCAUCGGUUUAAAAGGCAAGACCGUCAAAUUGCGGGAAAGGGGUCAACAGCCGUUCAGUACCAAGUCUCAGGGGAAACUUUGAGAUGGCCUUGCAAAGGGUAUGGUAAUAAGCUGACGGACAUGGUCCUAACCACGCAGCCAAGUCCUAAGUCAACAGAUCUUCUGUUGAUAUGGAUGCAGUUCACAGACUAAAUGUCGGUCGGGGAAGAUGUAUUCUUCUCAUAAGAUAUAGUCGGACCUCUCCUUAAUGGGAGCUAGCGGAUGAAGUGAUGCAACACUGGAGCCGCUGGGAACUAAUUUGUAUGCGAAAGUAUAUUGAUUAGUUUUGGAGUACUCGUGGUCG
# Procedure, shortened: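 The eight P1ex-region nucleotides of an intron in the knt kanamycin-resistance gene on pET-22b(+) were all randomised and the library put into E. coli BL21(DE3). Six replicate transformations were grown overnight at 37°C or 30°C on LB agar with or without 25 μg/mL kanamycin, together with 100 μg/mL carbenicillin, 50 μM IPTG and 0.2% rhamnose. Colonies were pooled and amplicon-sequenced on an Illumina HiSeq 2500. Fitness from DiMSum is the error-weighted combination of wild-type-normalised replicate fold changes, kanamycin over none.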
Sequence,self-splicing fitness (ln) (30 °C),self-splicing fitness (ln) (37 °C)
ACCAAGCAAUAUUACGCGCG,-1.5 ± 0.074,-0.523 ± 0.081
AACAAGCAAUAUUACGCAUU,-2.01 ± 0.069,-1.32 ± 0.091
GAACAGCAAUAUUACGGGCC,-2.22 ± 0.14,-1.09 ± 0.17
CAUGAGCAAUAUUACGUCUU,-4.56 ± 0.34,-2.53 ± 0.25
UUAAAGCAAUAUUACGCCGG,-0.245 ± 0.12,0.421 ± 0.18
CGGAAGCAAUAUUACGAACG,-3 ± 0.21,-0.802 ± 0.24
CCGUAGCAAUAUUACGGGCA,-3.76 ± 0.42,-2.14 ± 0.23
AAGAAGCAAUAUUACGAGUU,-1.15 ± 0.079,-0.169 ± 0.11
AAGCAGCAAUAUUACGUUAA,-1.76 ± 0.12,-2.14 ± 0.14
ACUAAGCAAUAUUACGGAUG,-2.49 ± 0.12,-1.42 ± 0.13
UGCAAGCAAUAUUACGGGUC,-3.11 ± 0.24,-2.11 ± 0.21
GCUAAGCAAUAUUACGCACC,-0.869 ± 0.11,0.0219 ± 0.14
UCAGAGCAAUAUUACGUACC,-3.69 ± 0.25,-1.59 ± 0.37
CCCCAGCAAUAUUACGUACA,-3.37 ± 0.21,-3.5 ± 0.35
UCAUAGCAAUAUUACGGGGG,-2.69 ± 0.19,-2.27 ± 0.21
CGUUAGCAAUAUUACGAGGA,-2.48 ± 0.27,-2.13 ± 0.27
GACGAGCAAUAUUACGUCAG,–,-1.66 ± 0.23
GUGCAGCAAUAUUACGCUGC,-2.77 ± 0.18,-2.14 ± 0.35
UCGAAGCAAUAUUACGUCGU,-2.65 ± 0.2,-1.34 ± 0.15
UCCGAGCAAUAUUACGUGAA,-3.29 ± 0.17,-1.16 ± 0.15
GGCAAGCAAUAUUACGUGGU,-2.43 ± 0.085,-1.57 ± 0.075
AGUUAGCAAUAUUACGACCG,-0.776 ± 0.093,-0.166 ± 0.13
GAAGAGCAAUAUUACGUGCA,-2.38 ± 0.18,-1.24 ± 0.2
AAGAAGCAAUAUUACGAUAC,-2.94 ± 0.19,-1.31 ± 0.17
AUAGAGCAAUAUUACGCACG,-1.57 ± 0.18,-0.997 ± 0.23

Sequence,self-splicing fitness (ln) (30 °C),self-splicing fitness (ln) (37 °C)
GGACAGCAAUAUUACGUCGG,-0.852 ± 0.099,-0.674 ± 0.14
CGCGAGCAAUAUUACGUCAG,-1.19 ± 0.092,-1.27 ± 0.11
AGUCAGCAAUAUUACGUGCU,-2.18 ± 0.12,-1.43 ± 0.12
GACCAGCAAUAUUACGGAGC,-0.563 ± 0.077,-0.0895 ± 0.11
CCUAAGCAAUAUUACGUGUG,-1.83 ± 0.057,-1.49 ± 0.075
CUCAAGCAAUAUUACGUCUA,-3.15 ± 0.16,-2.07 ± 0.14
GGCUAGCAAUAUUACGGUGU,-0.416 ± 0.062,0.178 ± 0.069
UCAGAGCAAUAUUACGAGGC,-1.74 ± 0.43,–
UUUGAGCAAUAUUACGUUGG,-3.37 ± 0.28,-2.26 ± 0.26
UAUUAGCAAUAUUACGCUUG,-0.91 ± 0.11,-0.336 ± 0.16
CACGAGCAAUAUUACGCGUG,-2.79 ± 0.19,-2.97 ± 0.38
CGAUAGCAAUAUUACGUACC,–,-1.56 ± 0.44
GAAUAGCAAUAUUACGCUGU,-3.12 ± 0.21,-2.1 ± 0.15
UGUGAGCAAUAUUACGCUAA,-2.39 ± 0.17,-2.04 ± 0.23
AAGAAGCAAUAUUACGUAUG,-1.93 ± 0.11,-1.14 ± 0.1
AUUGAGCAAUAUUACGCAAU,-3.28 ± 0.26,-2.07 ± 0.21
CCUCAGCAAUAUUACGAUGA,-2.63 ± 0.21,-2.8 ± 0.28
ACGCAGCAAUAUUACGCUGC,-3.38 ± 0.43,-3.02 ± 0.29
CGUAAGCAAUAUUACGGGUG,-1.64 ± 0.057,-0.924 ± 0.057
GCCCAGCAAUAUUACGGCGU,-1.12 ± 0.064,-0.731 ± 0.089
UACAAGCAAUAUUACGUAAC,-4.15 ± 0.16,-2.28 ± 0.15
UGCAAGCAAUAUUACGCUUC,-3.15 ± 0.24,-3.33 ± 0.32
AGACAGCAAUAUUACGUGAG,-1.67 ± 0.056,-0.569 ± 0.087
GCCCAGCAAUAUUACGUUUU,-1.53 ± 0.064,-0.591 ± 0.09
UUGCAGCAAUAUUACGGUUA,0.353 ± 0.082,0.0359 ± 0.075

Sequence,self-splicing fitness (ln) (30 °C),self-splicing fitness (ln) (37 °C)
GCCCAGCAAUAUUACGCAGC,-1.83 ± 0.12,-1.38 ± 0.13
GCGAAGCAAUAUUACGCGGG,-2.26 ± 0.16,-2.72 ± 0.36
GAUGAGCAAUAUUACGCCGU,–,-2.33 ± 0.46
CGAAAGCAAUAUUACGCGAA,-1.82 ± 0.24,-2.02 ± 0.3
GCUUAGCAAUAUUACGACAU,-1.26 ± 0.014,-0.365 ± 0.033
GAGCAGCAAUAUUACGACGG,-4.27 ± 0.26,-2.18 ± 0.17
GCCAAGCAAUAUUACGUAUA,-2 ± 0.23,-0.632 ± 0.15
CUCGAGCAAUAUUACGCGUA,-2.97 ± 0.48,-1.59 ± 0.23
GCGCAGCAAUAUUACGUCAU,-1.65 ± 0.084,-0.91 ± 0.086
AUUAAGCAAUAUUACGACGU,0.564 ± 0.087,0.495 ± 0.093
CCAGAGCAAUAUUACGGGUC,-3.22 ± 0.43,-1.53 ± 0.28
UGUAAGCAAUAUUACGGUCA,-0.349 ± 0.08,0.113 ± 0.12
GAACAGCAAUAUUACGUGUA,-1.58 ± 0.062,-0.438 ± 0.069
CUCUAGCAAUAUUACGUUAA,-2.75 ± 0.27,–
GACUAGCAAUAUUACGAUCA,-0.805 ± 0.062,-0.314 ± 0.077
ACUCAGCAAUAUUACGGUGC,-1.69 ± 0.07,-0.59 ± 0.082
CUUAAGCAAUAUUACGUGGG,-4.03 ± 0.17,-2.26 ± 0.12
CCGUAGCAAUAUUACGUUAC,-4.02 ± 0.32,-2.27 ± 0.42
CAACAGCAAUAUUACGUUCC,-2.46 ± 0.096,-2.02 ± 0.12
GAUCAGCAAUAUUACGUCUA,-0.327 ± 0.071,0.145 ± 0.086
CACCAGCAAUAUUACGCAAA,-4.2 ± 0.27,-2.99 ± 0.2
CAGAAGCAAUAUUACGUGGU,-3.58 ± 0.17,-1.86 ± 0.16
AAAGAGCAAUAUUACGGAGG,-3.48 ± 0.22,-2.3 ± 0.23
CCCGAGCAAUAUUACGUCUC,–,-2.22 ± 0.29
AAAGAGCAAUAUUACGGUGU,-4.54 ± 0.28,-2.87 ± 0.21

Sequence,self-splicing fitness (ln) (30 °C),self-splicing fitness (ln) (37 °C)
AUUGAGCAAUAUUACGACGA,-3.19 ± 0.4,-0.517 ± 0.22
UGCCAGCAAUAUUACGCUUA,-0.602 ± 0.063,0.791 ± 0.084
GUGUAGCAAUAUUACGUAAG,-1.56 ± 0.1,-1.57 ± 0.16
UACUAGCAAUAUUACGACAU,-1.645 ± 0.014,-0.715 ± 0.033
UCGAAGCAAUAUUACGGAAU,-3.57 ± 0.24,-1.91 ± 0.23
UUGAAGCAAUAUUACGCUUG,-1.02 ± 0.064,-0.679 ± 0.087
CAACAGCAAUAUUACGCAUA,-2.7 ± 0.12,-1.4 ± 0.098
ACAUAGCAAUAUUACGUUAA,-3.09 ± 0.19,-1.36 ± 0.15
ACCUAGCAAUAUUACGUAGG,-3.59 ± 0.2,-2.93 ± 0.21
AUGCAGCAAUAUUACGUUAG,-3.05 ± 0.15,-2.38 ± 0.2
AAACAGCAAUAUUACGGAGU,-3.77 ± 0.16,-2.53 ± 0.11
GUACAGCAAUAUUACGGUUU,-0.599 ± 0.044,-0.0338 ± 0.06
GGCGAGCAAUAUUACGAUUU,-1.09 ± 0.092,-0.569 ± 0.12
UAAGAGCAAUAUUACGCAUC,-4.23 ± 0.3,-3.46 ± 0.37
UUUCAGCAAUAUUACGUUGA,–,-1.85 ± 0.34
AUCUAGCAAUAUUACGUCUC,-2.8 ± 0.26,-0.391 ± 0.22
CUUCAGCAAUAUUACGCCGC,-3.14 ± 0.37,-2.43 ± 0.35
ACACAGCAAUAUUACGCAUG,-1.04 ± 0.075,-0.692 ± 0.081
UGGUAGCAAUAUUACGGGCG,0.0756 ± 0.11,0.475 ± 0.12
CUGAAGCAAUAUUACGAGUU,-4 ± 0.23,-3.47 ± 0.19
UGUUAGCAAUAUUACGUUAU,-2.78 ± 0.16,-2.67 ± 0.19
CUACAGCAAUAUUACGCAAG,-2.61 ± 0.15,-1.45 ± 0.19
